Patent US20160046684A1, “Methods and compositions for treatment of PTP1B-related diseases” (BROWN UNIVERSITY, priority 2014, published 2016)
Changes are numbered by the printed parent chain.

B1: PTP1BY153F: PTP1B1-301 mutant with mutation in the L11 loop (protein, UniProt P18031 1-301, looked up, variant Y153F)
chain: MEMEKEFEQIDKSGSWAAIYQDIRHEASDFPCRVAKLPKNKNRNRYRDVSPFDHSRIKLHQEDNDYINASLIKMEEAQRSYILTQGPLPNTCGHFWEMVWEQKSRGVVMLNRVMEKGSLKCAQYWPQKEEKEMIFEDTNLKLTLISEDIKSYFTVRQLELENLTTQETREILHFHYTTWPDFGVPESPASFLNFLFKVRESGSLSPEHGPVVVHCSAGIGRSGTFCLADTCLLLMDKRKDPSSVDIKKVLLEMRKFRMGLIQTADQLRFSYLAVIEGAKFIMGDSSVQDQWKELSHEDLEP
B2: PTP1BS190A: PTP1B1-301 mutant with mutation in the α3 helix (protein, UniProt P18031 1-301, looked up, variant S190A)
chain: B1 chain with F153Y, S190A
B3: PTP1BF194A: PTP1B1-301 mutant with mutation in the α3 helix (protein, UniProt P18031 1-301, looked up, fragment F194A)
chain: B1 chain with F153Y, F194A
B4: PTP1BL195A: PTP1B1-301 mutant with mutation in the α3 helix (protein, UniProt P18031 1-301, looked up, variant L195A)
chain: B1 chain with F153Y, L195A
B5: PTP1BF196A: PTP1B1-301 mutant with mutation in the α3 helix (protein, UniProt P18031 1-301, looked up, variant F196A)
chain: B1 chain with F153Y, F196A
B6: PTP1BD298A: PTP1B1-301 mutant with point mutation in the α7 helix (protein, UniProt P18031 1-301, looked up, variant D298A)
chain: B1 chain with F153Y, D298A
B7: PTP1BK292A: PTP1B1-301 mutant with point mutation in the α7 helix (protein, UniProt P18031 1-301, looked up, variant K292A)
chain: B1 chain with F153Y, K292A
B8: PTP1BL294A: PTP1B1-301 mutant with point mutation in the α7 helix (protein, UniProt P18031 1-301, looked up, variant L294A)
chain: B1 chain with F153Y, L294A
B9: PTP1BG283P: PTP1B1-301 mutant with point mutation in the α7 helix (protein, UniProt P18031 1-301, looked up, variant G283P)
chain: B1 chain with F153Y, G283P
B10: PTP1BE297A: PTP1B1-301 mutant with point mutation in the α7 helix (protein, UniProt P18031 1-301, looked up, variant E297A)
chain: B1 chain with F153Y, E297A
B11: PTP1BS295A: PTP1B1-301 mutant with point mutation in the α7 helix (protein, UniProt P18031 1-301, looked up, variant S295A)
chain: B1 chain with F153Y, S295A
B12: PTP1BY152F: PTP1B1-301 mutant with mutation in the L11 loop (protein, UniProt P18031 1-301, looked up, variant Y152F)
chain: B1 chain with Y152F, F153Y

test system: PTP1B; experiment: Phosphatase activity of PTP1B constructs against pNPP (enzyme assay); type: biochemical, human; details: pNPP substrate, pH 7.5, 0.015 μM PTP1B (FIG. 27, 32A, 32B)
Method: Phosphatase activity of PTP1B against the general PTP/DUSP substrate, p-nitrophenyl phosphate (pNPP), was tested in 50 mM HEPES pH 7.5, 150 mM NaCl, 0.5 mM TCEP. 40 μl of enzyme at a 1.5 μM concentration was added to 60 μl of pNPP substrate resuspended in the reaction buffer. See, FIG. 25. The final concentrations of pNPP used in this experiment were […]. The enzyme was incubated with the substrate at 30° C. for 30 min, after which 100 μl of 1 M NaOH was added to a final concentration of 0.5 M NaOH to quench the reaction. Absorbance was measured at 405 nm and the final concentration of p-nitrophenol (pNP) was calculated using the molar extinction coefficient of 18000 M-1 cm-1. A control reaction in which substrate was incubated in the absence of enzyme was subtracted from all other experimental values. All experiments were performed in triplicate.
Enzyme assays were performed at pH 7.5 with 0.15 μM PTP1B to compare the activities of wild-type PTP1B1-301 to mutants with mutations in the L11 loop: PTP1BY152A/F, PTP1BY153A/F, and PTP1BYAYA. See, FIG. 17. […] Ibid. […] Ibid. […] Ibid. […] Ibid. […] Ibid. […] Ibid.
Enzyme assays were performed at pH 7.5 with 0.015 μM PTP1B to compare the activities of wild-type PTP1B1-301 to mutants with mutations in the α3 helix such as PTP1BN193A. See, FIG. 27. […] Ibid. […] Ibid. […] Ibid. […] Ibid. […] Ibid. […] Ibid.
An enzyme assay was used to compare the activity of wild-type PTP1B1-301 to the activity of PTP1B1-284 P185G. See, FIG. 15. Enzyme assays were performed at pH 7.5 with 0.015 μM PTP1B to compare the activities of wild-type PTP1B1-301 to mutants with mutations in the α7 helix. See, FIG. 32A. In one embodiment, these point mutations were made in an amino acid sequence substantially similar to SEQ ID NO: 2.

Molecule	Km [µM]	kcat [s⁻¹]
B1	620 ± 70	6.0 ± 0.2
B2	370 ± 50	6.1 ± 0.3
B3	390 ± 50	5.3 ± 0.3
B4	290 ± 30	4.1 ± 0.1
B5	320 ± 40	4.2 ± 0.2
B6	480 ± 100	6.3 ± 0.4
B7	380 ± 50	6.1 ± 0.3
B8	730 ± 50	5.1 ± 0.1
B9	850 ± 70	4.9 ± 0.2
B10	720 ± 120	4.6 ± 0.3
B11	800 ± 70	4.5 ± 0.1

same assay, conditions: pNPP substrate, pH 7.5, 0.15 μM PTP1B (FIG. 17)

Molecule	Km [µM]	kcat [s⁻¹]
B1	900 ± 80	3.4 ± 0.3
B12	950 ± 40	3.4 ± 0.1
